The values that follow come from patent US20040170614A1.

Holding throughout (test): cell-based or functional assay
The target in experiment [1] is mouse CD40 (mCD40) (mouse) (UniProt P27512).
Another experiment concerns the target hmCD40ΔT6 (human; mouse) (UniProt P25942).
Experiment [2] deals with human-mouse hybrid CD40 (hmCD40) (human; mouse) (UniProt P25942).

UniProt P27512, sequence (P27512 20-289): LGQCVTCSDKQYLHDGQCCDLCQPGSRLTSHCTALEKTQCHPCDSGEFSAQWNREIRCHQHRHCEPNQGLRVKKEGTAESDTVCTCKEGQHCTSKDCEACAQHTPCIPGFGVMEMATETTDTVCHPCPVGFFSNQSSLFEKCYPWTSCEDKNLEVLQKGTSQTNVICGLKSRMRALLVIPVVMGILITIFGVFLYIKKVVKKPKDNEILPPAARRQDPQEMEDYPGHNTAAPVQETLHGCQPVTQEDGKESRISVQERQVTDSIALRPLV

Turning to anti-mCD40 mAb 1C10 (antibody), in experiment [1], the IgM secretion (Pfc), CH12.LX+hmCD40 cells turned out to be 431000 Pfc; the IgM secretion (Pfc), CH12.LX+hmCD40ΔT6 cells was found to be 378000 Pfc; the IgM secretion (Pfc), CH12.T2-/-+hmCD40 cells amounted to 399000 Pfc; the IgM secretion (Pfc), CH12.T2-/-+hmCD40ΔT6 cells turned out to be 340000 Pfc.

In the experiment with hmCD40ΔT6 (human; mouse), anti-hCD40 mAb G28-5 (antibody) registered an IgM secretion (Pfc), CH12.LX+hmCD40ΔT6 cells of 187000 Pfc and an IgM secretion (Pfc), CH12.T2-/-+hmCD40ΔT6 cells of 34000 Pfc. In addition, in experiment [2], the IgM secretion (Pfc), CH12.LX+hmCD40 cells amounted to 430000 Pfc and the IgM secretion (Pfc), CH12.T2-/-+hmCD40 cells stood at 376000 Pfc.
